# Assay results published in the NTF2 design screens of Basanta et al. (2020).
# Assay: protease stability score; higher = more stable; yeast display proteolysis, trypsin and chymotrypsin;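 note: log10 excess protease needed over predicted unfolded state with 0 meaning unfolded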
row,Sequence,protease stability score
1,EEEKYQKLAKKVFEAVDKGNYEEVVKLGDENGKFQFGDNRVEGLEQYKRLMEKFEKKGVQVRVRKAQNKDDTATMVTTVKYGDVENTVTAELKYEGGKLKEARVENDEEVKEAVKKG,0.031
2,EEELADLLRRFLENVKDNDENQLKRNLDPNVRVLVGDKTLHGREDVARWLTKHQREQRVEYRIKEYEIHGNHFNATMQAQNTNNGKPRTFEAVIRVQFRNGRFQVIQIEDKQ,1.39
3,EEELAKRIRDFLHWVEKGNDDRAMELADPNARVDIGDRDIHGRESIREWVKKMQDKQRVEFDVKHVTVRGNTVVVDLVMRVEHNGQPSETKYQFEAKDNNGHLKFIKVTTIS,1.3
4,EEELAKSYVELLKQLSEGNEENLKELMDPNARIEVGDKELHGREDIVNTWSKEAREIRIHYEIKHIEQEPGRVTIHARVEVQHDGQPSSKDFNVVFTAKNGRLTKMTVQDDG,0.767
5,EEELEEQLHRLLQLIREGNEHKVKEQMDPNVKVVYGDKEYKGRDEVETYLEEVINHWRVNFRVKHITVKGDKVDMKAEASYTHNGRPVNRKLTINAEIHNGRFKTLEFKWDG,0.214
6,EEELEKEAEKFFRIVHDGNEDDLKRYMDPNVDITVGDKSLTGHSHYARRVKQKKRELRVDIKIESIKADGNRVSATVVWVNNHNGEPQSDAAEVEFNFHNGRVTHIRNDDDK,0.151
7,EEELERRVEDQFKDWNTGDPDRDREMFDKDATVRVGDKKIKGSSQFRDELEKRRREMEFHVEVKDIQDEPGRVNVTFKFRTNHNGQPKEDTMRFHMTWHNGRIKHMSIHHDG,0.641
8,EEELFEQWQKIIENQEHGNEDRLQDQFDPNARIDVGDKRIRGRENLAKDQQDKLDNIRFDFQIDHVQDRPGKIVIKYHEVNNHNGKPRSDTVVVHIQAHNGKIQRIDVQKDK,-0.065
9,EEELKKVWTEMQDALENGNEEKIEENFDPNAHFQIGDTHIHGMHEWAHQQFREMKDIRVQVEIESVTFSGDKVNVEYSFTLEIDGRPQSNTATMSARVHNGHFKSVSIRIDPKELKDRQK,0.601
10,EEELLERIKTFVKVYEHGDFKRLHRNLDKDVRVVVGDKHVRGREEAVRDMSEELRNMDQKIDFKTMHITNGKANLDFHFQNTVNGQPRRDRAHLIIRLHNGKFQEIKIQFSEEQERRQKG,0.608
11,EEELLQRATEFLHAQETNDPKRLKEQADPNARFRVGDKTIHGMDEYVRQLEQTEREMKVSLEIKHVTLTGDKADVEAEVTKDRNGRPDRFRVRYEFEARNGKFVDVRIQEDR,0.336
12,EEELNKVFEDLLEAEKTGDPDKIMRYFDPNARVSYGDKHIHGREEIRKDADRRKEHMRRDIHDYRIDARGDKVRFTADFTQTHNGQPRRHRMRMEVRVKGDKFRHFRIDEDG,0.083
13,EEELQKKASEFIRLQQKGDSEEVMKNVDPNARINVGDKVYDGREQLAKDLHRSKRESRMHFDLKSISVENGKVDVRARMHVVENGQPRRFRVRIIFHQENGRITHFQYHTDD,0.258
14,EEELRHTAHELQKAYEENDPEKILENLDPNAQVQIGDRRVHGRHEIRKLMEHFERQARVRVHDVKVDVHGNKINIQVDAEQNHNGEPRSFTVQAEMTMHNGRVKSIDMKIQG,0.612
15,EEELRNVYRDLLEAEERGNPDDIKRLVDPNARLQIGDKEIHGREHLMRFVEEVRKEIRFEIDRLDVTATGETAKVDARVKQNHNGQPESWHYTVQVKYHNGRIVNLRMRRTS,1.31
16,EEELVKKAKTFMKQEEDGNPEKLKEYADENVRMHVGNKEVRGMDQYAEDVRRKREEARFSFKSIDAKASGDKITVRATLTFNVNGKPVEIDMTIILKLHNGRLKFLKVRVDPDEERRLES,0.595
17,EEELVKRLKELFEAYQTGDEHQLKDLMDPNVRANIGDKTFHGREKLITHIKRYLDELDFQLKSVTFRLSGDHAVVTFEIEVDVNGVPRSFRFRFHIKMSNGKVTEIEIQFDPERQKKLES,1.38
18,EEEMVKHIKRVLENNDEERRAQLADKDAHARVGDRHVHGREELEKIVHHIKRRVDHLEVKDVKADGNTIEADVVMQVDGRTMQYNLTIILHNGTIKSVTIKVRNEEQKKLMEELFG,0.317
19,EEENFNRANEFMKAVETNDPDKLKHNADENVQITYGDKSYQGRESWAKDLQRKLKHMRWRYEFKSYHDTGDSVDVSLRVMATVNGKPRDFHLRMIIHFKNGKIKNIELRLDPDELDKLES,0.648
20,EEENQKLAKKFITAVNKGNPKELNENVDPNARLVIGDKTIHGRETLDRWAKKVKDDMRNHWHVTSLRVSNGDIKADVKVVINHNGKPDDFTLDMTMEVHNGKIKRMDARDSQ,0.157
21,EEENQQIAEDVVDVLRTGDHEKFMHMADPNVKVVIGDKQYRGREDFSKIVKTWKDQMRLHIQIKDVKVEGDEVHVEADYLMKHNGKPVRDTITLVIRFDNGKIKEVQYEVDEDVLRKLES,1.14
22,EEENSKLMEEIVKAISNGNPDRVRENMDPNARARYGDKRIHGMENILTQIERRWRQIRIQVDDVKLSVENGTINVDIQQRNDNNGQPDNFRLEASASVENGKVKEMNVVKRP,0.014
23,EEENVKLVERFLKAVLEGDEDQLRRLMDPNARVRVGDKVLTGRDRVAEHFKERSQQWQFHIDVKHVSVNGDHIIMHFQFSMTVNGQPRSATMTAVFRVHNGRIQQVEFRLPEEDQKTIRG,0.811
24,EEENVKVAQEIINIEDRGDSDQIHRLFDPNAHWTVGDQDIHGRETWLTKFRKEREEMRVRFRTLHFNAHNGRAVVRVEQEVTHNGTPTTKVYIMKVEFRNGKVKSIVFQSDG,0.235
25,EEEQITKLEEVLKDVETGDPNKLIDNFDPNVRYDYGDKKYHGMTNWAKDVVSKAKEQHVTRHVTDVKVQGNHASMTADVNNDHNGRPHKQKQDIQFTFHNGKIKNVHVQETK,-0.667

row,Sequence,protease stability score
1,EEEQLHNVVRALNQNDFDKFRKLIDPNARVVVGDKSWHGREDLSNYIKQLQDHVDHRTVKDVKWHNGKIHADVEQTVNGKKMRFVFQAVVKGDKVKELNMKFRDERVETLMRKVLR,0.14
2,EEEQLKILQELRKALQDNDSERMKELFDEDVKVQVGDKTITGREKVVDDLRRKAEEQRIQYVTMSARAENGHITVRLQFVNTHNGRPHRRERKLDITLHNGKFKSARYDNDG,0.842
3,EEEQLKTVKQWQENEKTGNEEELKKQADPNAKFRIGDHEVRGMENYAHDVIRRVKDARVDYETISHDVNGDRVVIRAVYRMNHNGRPSSYEYTVHYEMHNGKMKNVTVNKRQ,0.041
4,EEEQQKVLEELFRVLQEGDEKRAIKLADPNAKFNVGDKQYNGMEEYARSVATEIRNIRVEIETMDARVQGDHVQVNIVVNYKINGQPFRMTIKVRANVHNGQVHELNMHVDEDQQRKLKT,0.014
5,EEERDKFAKILLHAILTGNEEQFKRLADPNATFNIGDRKIHGMERYTKQMKQEVDRIKIKVESVKISVSGNKITIDMVATFNVNGQPVTIRFVLDVTIKNGRVSELVLRVSDEQLQKMRR,0.308
6,EEERQKKAEQWVHAYRHNNEDEIRQLADPNVRFNVGDTRITGRENVMKTLDDQMRHQRVRFHDIQIRVKGDKINITIDAEYESNGRPSRRTLSLEMHLHNGKISHARIDIQG,-0.128
7,EEESAQEFMKNLNTGNFEELNKMADENARMQVGDKTFQGRHQIETLLKTLKKQIDHVSFKSVEMNGDKVDAKVVFQVNGQHFEVIVKVDVRGDRVTHVTYEFTNEDQEERFKRAVQ,1.35
8,EEESHQVAENIARILQTNDPRRLAELMDENARVRVGDTQLSGREDIEKQMDKEMKEIRVEIKNYEIDAKGEKIDIDVDQVFVHNGKPDRQRVKYDFDLRNGQIKRASVSVHK,-0.188
9,EEETVKHLVQLFRTGDWDQLAKEMRDNVEVIIGDKRLHGRENAEQLARILKKHIDHQSYESMTFHNGKLVMKYEFVFNGRRVRARLVVNVHNGKIVNMQLDFTDPRDERLWKKVVE,1.66
10,EEETVKRMAEHVNHALQENDPKKMNDLFDENVQVDVGDTRIHGREDLTKYVKTFKQRVDQVEIQRVDVQGNTVVILMVLEHNGHRRQVVVIMHFHNGKVKEMRVTDK,0.097
11,EEEVAKHALEIMITGDPKQIKEMVDENAHVKVGNKEWHGREHMVHWAEQLHTQVDHREVRSMEVNGNTARVDLVVTINGHHIRFILRATIHNGRVQHLSLEVTNEEQQTQWERNLS,0.075
12,EEEVEDQAKKYAKALHDNDPKTLSKLADKDAEFRYGDHQFHGREEVEKHWEKELKEIEVDWRVVDVKAHNGQVRIRFQAHRHHNGDPKNDNRKASARVTNGRIKKIEWVEDH,-0.059
13,EEEVEKAAERVAEVMKDNNPERVEELFDPNAHITVGDRTLHGREELSKHYKTMTDQWRIQIDRFSVEDHGSTVVIRIDFEADHDGRPEKREVIIKLSVSNGRVSWAIFKVDQ,0.734
14,EEEVKRKMKEYFDVARHGDPDRLREYVDENARIHIGDKVIHGMSDAADHLAQHYKEIRFDYTRIDVKAEGDQVKVDIDVVVNHNGRPEQVHLHWEARFTNGRVKHMKVQRQK,-0.108
15,EEEVQHKIKQLLKNNDWTTLADQVDPNARMVVGDKTVTGREQIQTIARRIQERVDHVEFKQLTVQGDHIDVVMVVNINGEHIKMHFIFRVHNGHIKHVEMQATDPRDQKKLKDLLE,1.54
16,EEEVSKRAREFVEAYQTGNEDKMHRLVDENADAQYGDKHIHGMTEIKRHVKRLTEEIRVQVESMDVKANNGHVRVRVHLVLHINGNPIDVTVIIVMRFKNGTIRSVQFRMPEEARDTIRK,-0.077
17,EEEVVKEVTKAAKTGNFEKLLRLADPNVEMRIGDKTFHGRTELKDALRDIKQNADHIELKSLDSHNGRLEVDLVVNVNGKDVRFILRVSVHNGRITQMSVESRDTDFKKVLDEMLG,1.91
18,EEHDERTMHRLVETNDWETISRNADKDVKFQVGNKSYHGKEEFTEVLRKITKRADHIEYRSFNSHNGRIDVDYVFVVNGKEVKVFVQIQVHNGRIKHMRMRATNPDQQQELVDQLS,1.44
19,EEHIKEVLDRVREAWRKNNPDDLKRNFDPNARFNIGNKRYHGMEHFVEDVARLLHEIHVEIHYHHITFDGNEARFSYDAVFNVDGRPIRDSMSRRVILHNGKIVDMKVDVDPKELDKKLK,-0.093
20,EEHLESLVRNLEEAVKKGNPEEMKKNLDKNARMVYGDKRLHGMSDILTEIEKRREHMRLEHEVKSIDNQGNKAKVTARLDVNVNGHPVDVDFIIHIKVHNGHVLEIVYQLPPEAHEKLKT,-0.278
21,EEHLKHVVEELWKAMQTGDEDKIRRNADPNAHFSIGDKVIQGRERFAQDVRQTYDEIRVDIKIHRMNIQGEKVKVRFTFEQKVNGKPRSDENSAENTLHNGKVEEMNITIDPDKQRKFES,-0.43
22,EEHLKQTFKEYMENYRTGNEEQLHSMVDEEAKFSYGDKKIHGRTEAIKQLVRRREEMRWDVQIKDMEVHNGRIEVDARVRFKHNGQPDDQKVVFRAVIHNGRFKMISEQYQP,0.376
23,EEHLQERLTKLNEAEQKGDPKKILEQVDPNARVEVGDKTYHGMDRYARRVAKEMNEMRVEVHIKDLKVRGNNIHAEMSATHTKNGKPSHNEFTLVVVWNNGRVTSIVVTHKS,0.717
24,EEHLQKTVEEMIKLIRHGNEHKVQENIDPNARIVIGEKRIRGRETFAHLLSKRHKEQRYEVREIKLTVQGEKVKVSMDVVADINGKPIRFSIDMFLHASNGKVKDIQYRISEEQRDKQQG,-0.033
25,EEHMEDSFRKWKDNLRTNDEKSLEKMADPNATFDVGDKRFRGMHKYVHDLVNTLRSMRVDIKINSIDVQGDKIKARAQATVYHNGRPQRYTFSFEIKINNGHIQRLVRKDDQ,-0.035
